Laboratory results from patent US20050053993A1, “Uses of an endothelial cell receptor” (priority 2002, published 2005).

Tests used:
[1] = system: EAHY cell surface proteins (~75 kDa and ~95 kDa); assay: S-tag-K5 affinity pull-down of biotinylated EAHY surface proteins; assay type: binding; conditions: 100 nM S-tag-K5; 1 μM peptides, 10 μM cold rK5
Protocol: The second method used to identify cell surface rK5 binding proteins was described previously (Zhang, J. C., et al, supra). Surface proteins on 4×10^6 EaHy cells were labeled with NHS-biotin. The cells were washed and lysed (M-Per, Pierce). Cell lysates were mixed with S-tag K5 for 1 hour at room temperature. S-tag K5 bound proteins were precipitated with S-protein agarose (Pierce). Bound proteins were eluted with excess rK5 or with excess PRKLYDY (SEQ ID NO:1) peptide. Eluted proteins were visualized with avidin-HRP and a chemiluminescent substrate. Mass spectroscopic analysis was used to identify the major protein bands.
In particular, surface proteins on 1×10^6 EAHY cells were labeled with NHS-biotin. The cells were washed 3× with PBS and lysed with M-pur. Cell lysates were mixed with (A) 100 nM S-tag-K5, (B) 100 nM S-tag-K5 plus 1 μM PRKLYDY, (C) 100 nM S-tag-K5 plus 10 μM cold rK5 and (D) 100 nM S-tag-K5 and N-terminal K5 peptide at 1 μM for 1 hour at room temperature. The K5 binding proteins were precipitated with S-protein-agarose. Bound proteins were eluted with 50 mM glycine buffer at pH 3.0 and run for PAGE analysis. Surface proteins (biotinylated) that bind K5 were visualized with avidin-HPR and a chemiluminescent substrate.

[2] = system: D54; assay: Tumor cell proliferation, D54; assay type: cell-based, human; conditions: D54, 72 hours
Protocol: Cell Proliferation Assay. The effect of rK5 and rK5 peptides on endothelial cells were assessed using a proliferation assay with 1% BSA and 3 ng/ml bFGF in serum-free media. Relative cell numbers in each well of a 96 well microplate after incubation for 72 hours in the absence or presence of inhibitors were determined by using the AQueous cell proliferation assay (Promega, San Luis Obispo, Calif.). For all other cell lines tested for proliferation, minimal growth media was used (Cao, Y., Ji, R., Davidson, D., Schaller, J., Marti, D., Sohndel, S., McCance, S., O'Reilly, M., Llinas, M., and Folkman, J. Kringle domains of human angiostatin. Characterization of the anti-proliferative activity on endothelial cells. (1996) J. Biol. Chem. 271, 29461-29467). Results are presented as the percent inhibition of control cell (bFGF-induced) proliferation.

[3] = biological target: T1, recombinant GRP78 ATPase domain (Homo sapiens, UniProt P11021); assay: NMR binding to recombinant GRP78 ATPase domain
T1 construct: NMR studies with a recombinant GRP78 ATPase domain
T1 sequence (P11021 19-408): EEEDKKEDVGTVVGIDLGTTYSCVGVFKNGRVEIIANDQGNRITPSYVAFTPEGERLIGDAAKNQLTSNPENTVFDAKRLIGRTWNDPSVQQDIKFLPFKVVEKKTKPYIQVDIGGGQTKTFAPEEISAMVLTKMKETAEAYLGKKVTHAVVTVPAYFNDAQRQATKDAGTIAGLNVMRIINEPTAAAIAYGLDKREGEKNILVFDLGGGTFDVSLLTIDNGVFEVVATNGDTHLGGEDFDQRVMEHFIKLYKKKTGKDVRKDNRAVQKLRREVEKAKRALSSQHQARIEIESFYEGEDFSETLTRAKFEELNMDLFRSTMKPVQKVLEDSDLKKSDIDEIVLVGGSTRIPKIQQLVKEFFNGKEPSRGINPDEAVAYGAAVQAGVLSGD

[4] = system: HT1080 human fibrosarcoma cells; assay: Apoptosis of HT1080 cells under hypoxia; assay type: cell-based
Protocol: FIG. 15A is a graph showing the effect of rK5 on HT1080 human fibrosarcoma cells under hypoxic and non-hypoxic conditions. […] cells were plated on slides overnight with complete medium. Control slides were put in the incubator at 5% CO2 and 37° C. The other slide of cells was put in a hypoxic chamber with 95% N2, 5% CO2 at 37° C. for 24 hours. GRP78 on the cell surface was detected by IHC analysis with a polyclonal antibody to GRP78 conjugated to horseradish peroxidase. The GRP78 was visualized with the DAB reagent displaying a brown color.
FIG. 15B is a graph showing the effect of rK5 on induction of apoptosis in various tumor cell lines tested under hypoxic conditions. Cells were plated in 96-well plates overnight. Half the plates were put in hypoxic chambers overnight at 37° C. with and without 500 nM rK5. Increased apoptosis was shown by an ELISA technique that measures the number of nucleosome fragments. The apoptotic index was calculated from the apoptosis rate of control cells (without K5 and with or without hypoxia). The samples were run in quadruplicate.
FIG. 15C is a graph showing the effect of rK5 on hypoxia-stressed HT1090 cells transfected with an siRNA and a scrambled siRNA to GRP78. The transfected cells were plated in 96 well plates and placed at 5% CO2 and 37° C. rK5 (500 nM) was added to the cells and half were incubated in an hypoxic chamber with 95% N2, 5% CO2 at 37° C. and half were incubated at 5% CO2 and 37° C. for 24 hours. Apoptosis was shown by an ELISA technique mentioned above. The samples were run in quadruplicate.

B1: rK5: recombinant kringle 5 fragment of human plasminogen (residues 450-543), expressed in E. coli or yeast (protein)
chain: LLPDVETPSEEDCMFGNGKGYRGKRATTVTGTPCQDWAAQEPHRHSIFTPETNPRAGLEKNYCRNPDGDVGGPWCYTTNPRKLYDYCDVPQCAA
competition of protein binding to the S-tag K5 column [1]: competed | IC50 values for cell proliferation [2]: >100 µg/mL | binding with the ATPase domain of GRP78 (NMR) [3]: direct binding | activity on hypoxia-stressed GRP78 siRNA transfected HT1080 cells ([4]; hypoxia, GRP78 siRNA transfected, rK5 500 nM): significantly eliminated the activity of rK5 | increase in apoptosis under hypoxic conditions ([4]; hypoxic conditions, within 24 hours): greater than two-fold increase in apoptosis | effect on cellular apoptosis without hypoxia ([4]; without hypoxia): no significant effect
